Data published in PMC8909857.

Biological target: Channelrhodopsin-2 (D156C) (Chlamydomonas reinhardtii) (UniProt Q8RUT8)
Assay: SDS-PAGE; Coomassie-stained SDS-PAGE of SEC-purified fractions (elution volumes 11 to 15 mL); dimer partially SDS-resistant

Channelrhodopsin-2 (D156C) (from UniProt Q8RUT8 1-737) (natural protein)
stoichiometry N: 2
